Results taken from PMC11185801 (bioRxiv, 2024).
Residue numbers refer to the chain shown, from its start. Numbers in names are those of the source.

B1: human Kir7.1 R162Q mutant (natural protein)
chain: MDSSNCKVIAPLLSQRYRRMVTKDGHSTLQMDGAQRGLAYLRDAWGILMDMRWRWMMLVFSASFVVHWLVFAVLWYVLAEMNGDLELDHDAPPENHTICVKYITSFTAAFSFSLETQLTIGYGTMFPSGDCPSAIALLAIQMLLGLMLEAFITGAFVAKIAQPKNRAFSIRFTDTAVVAHMDGKPNLIFQVANTRPSPLTSVRVSAVLYQERENGKLYQTSVDFHLDGISSDECPFFIFPLTYYHSITPSSPLATLLQHENPSHFELVVFLSAMQEGTGEICQRRTSYLPSEIMLHHCFASLLTRGSKGEYQIKMENFDKTVPEFPTPLVSKSPNRTDLDIHINGQSIDNFQISETGLTE
B2: human Kir7.1 E276A mutant (natural protein)
chain: B1 chain with Q162R, E276A

Molecular target: the molecule itself
Experiment: cryo-EM structure

Protein | stoichiometry N
B1 | 4
B2 | 4
